# Assay results published in article PMC5511190.
# Molecular target: GST-LRRK2 WD40 G2385R (human) (UniProt Q5S007)
# Experiment: affinity purification with mass spectrometry; 5 µg GST fusion protein on glutathione-Sepharose incubated with adult mouse brain lysate or crude SV fraction (LP2) (1 mg protein) 2 h at 4 °C; washes 150 mM NaCl, 2 mM EDTA, 50 mM Tris-HCl, 0.2% Triton, pH 7.4; LC-MS/MS with label-free quantification, 4 samples per condition (GST-control, GST-WD40, GST-WD40-G2385R)
# GST-LRRK2 WD40 G2385R (human), sequence (Q5S007 whole entry G2385R, the tested form may be a part): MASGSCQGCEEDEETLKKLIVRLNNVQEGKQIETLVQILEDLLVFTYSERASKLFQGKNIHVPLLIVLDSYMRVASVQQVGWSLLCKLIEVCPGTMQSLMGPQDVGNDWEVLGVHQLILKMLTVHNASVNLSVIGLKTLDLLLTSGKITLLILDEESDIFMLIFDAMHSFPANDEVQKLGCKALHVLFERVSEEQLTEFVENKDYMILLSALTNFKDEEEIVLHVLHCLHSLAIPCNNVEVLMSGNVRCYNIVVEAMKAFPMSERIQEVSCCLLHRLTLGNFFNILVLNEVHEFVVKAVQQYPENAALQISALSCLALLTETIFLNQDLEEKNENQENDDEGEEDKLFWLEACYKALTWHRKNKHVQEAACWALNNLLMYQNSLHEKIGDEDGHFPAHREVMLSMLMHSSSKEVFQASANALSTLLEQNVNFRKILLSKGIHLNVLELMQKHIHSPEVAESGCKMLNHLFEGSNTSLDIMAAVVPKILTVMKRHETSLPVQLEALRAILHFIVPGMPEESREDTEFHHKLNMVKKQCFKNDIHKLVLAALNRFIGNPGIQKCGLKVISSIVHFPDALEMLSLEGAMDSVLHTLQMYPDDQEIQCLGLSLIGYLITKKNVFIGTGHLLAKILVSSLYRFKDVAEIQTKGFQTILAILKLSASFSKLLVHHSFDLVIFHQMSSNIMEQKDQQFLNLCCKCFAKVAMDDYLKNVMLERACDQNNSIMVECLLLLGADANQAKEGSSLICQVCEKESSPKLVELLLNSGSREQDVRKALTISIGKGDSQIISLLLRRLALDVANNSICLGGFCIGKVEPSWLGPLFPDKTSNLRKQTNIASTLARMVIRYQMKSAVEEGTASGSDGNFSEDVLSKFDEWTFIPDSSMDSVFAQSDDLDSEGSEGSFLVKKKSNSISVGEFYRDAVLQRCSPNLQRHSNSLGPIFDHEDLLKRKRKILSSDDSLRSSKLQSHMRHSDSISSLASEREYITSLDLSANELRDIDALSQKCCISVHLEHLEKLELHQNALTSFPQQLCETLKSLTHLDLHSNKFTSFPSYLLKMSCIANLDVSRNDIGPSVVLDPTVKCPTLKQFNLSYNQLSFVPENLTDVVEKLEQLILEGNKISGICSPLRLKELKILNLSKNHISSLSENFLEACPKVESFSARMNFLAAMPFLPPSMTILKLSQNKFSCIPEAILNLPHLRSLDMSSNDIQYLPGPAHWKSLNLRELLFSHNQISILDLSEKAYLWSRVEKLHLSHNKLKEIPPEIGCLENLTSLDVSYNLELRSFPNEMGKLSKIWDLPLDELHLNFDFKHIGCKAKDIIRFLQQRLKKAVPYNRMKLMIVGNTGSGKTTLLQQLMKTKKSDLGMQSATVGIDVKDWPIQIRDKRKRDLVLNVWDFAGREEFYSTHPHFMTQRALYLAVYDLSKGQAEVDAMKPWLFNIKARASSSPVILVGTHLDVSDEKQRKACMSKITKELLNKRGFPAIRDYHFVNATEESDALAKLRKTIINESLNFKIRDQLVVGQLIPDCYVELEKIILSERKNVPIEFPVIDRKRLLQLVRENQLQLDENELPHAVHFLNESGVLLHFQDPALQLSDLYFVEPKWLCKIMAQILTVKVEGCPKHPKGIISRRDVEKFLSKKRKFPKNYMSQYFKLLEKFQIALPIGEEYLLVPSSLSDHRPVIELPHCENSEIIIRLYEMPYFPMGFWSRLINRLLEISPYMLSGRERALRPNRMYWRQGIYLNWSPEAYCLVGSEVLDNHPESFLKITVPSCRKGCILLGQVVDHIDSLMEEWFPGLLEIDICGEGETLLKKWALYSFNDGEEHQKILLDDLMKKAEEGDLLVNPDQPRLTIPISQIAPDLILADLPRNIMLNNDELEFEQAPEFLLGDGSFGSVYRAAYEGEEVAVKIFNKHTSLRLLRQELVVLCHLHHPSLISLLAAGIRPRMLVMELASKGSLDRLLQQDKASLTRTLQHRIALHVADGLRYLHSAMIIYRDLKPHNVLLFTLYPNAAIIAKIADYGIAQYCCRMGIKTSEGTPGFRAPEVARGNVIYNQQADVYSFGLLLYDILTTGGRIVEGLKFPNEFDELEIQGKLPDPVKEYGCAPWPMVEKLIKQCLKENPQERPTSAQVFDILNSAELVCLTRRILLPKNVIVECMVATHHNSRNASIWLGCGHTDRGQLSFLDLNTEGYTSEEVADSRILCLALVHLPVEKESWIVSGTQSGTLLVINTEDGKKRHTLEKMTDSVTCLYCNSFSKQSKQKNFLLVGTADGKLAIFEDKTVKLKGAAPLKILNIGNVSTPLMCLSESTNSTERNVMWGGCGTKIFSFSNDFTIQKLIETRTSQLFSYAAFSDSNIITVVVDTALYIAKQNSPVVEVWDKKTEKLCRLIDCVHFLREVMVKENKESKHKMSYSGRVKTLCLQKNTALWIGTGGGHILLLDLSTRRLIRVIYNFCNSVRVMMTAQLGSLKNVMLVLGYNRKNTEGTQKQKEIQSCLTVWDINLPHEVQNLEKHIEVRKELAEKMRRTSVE
# AP-2 complex subunit alpha-1, sequence (P17426 whole entry, one chain of several): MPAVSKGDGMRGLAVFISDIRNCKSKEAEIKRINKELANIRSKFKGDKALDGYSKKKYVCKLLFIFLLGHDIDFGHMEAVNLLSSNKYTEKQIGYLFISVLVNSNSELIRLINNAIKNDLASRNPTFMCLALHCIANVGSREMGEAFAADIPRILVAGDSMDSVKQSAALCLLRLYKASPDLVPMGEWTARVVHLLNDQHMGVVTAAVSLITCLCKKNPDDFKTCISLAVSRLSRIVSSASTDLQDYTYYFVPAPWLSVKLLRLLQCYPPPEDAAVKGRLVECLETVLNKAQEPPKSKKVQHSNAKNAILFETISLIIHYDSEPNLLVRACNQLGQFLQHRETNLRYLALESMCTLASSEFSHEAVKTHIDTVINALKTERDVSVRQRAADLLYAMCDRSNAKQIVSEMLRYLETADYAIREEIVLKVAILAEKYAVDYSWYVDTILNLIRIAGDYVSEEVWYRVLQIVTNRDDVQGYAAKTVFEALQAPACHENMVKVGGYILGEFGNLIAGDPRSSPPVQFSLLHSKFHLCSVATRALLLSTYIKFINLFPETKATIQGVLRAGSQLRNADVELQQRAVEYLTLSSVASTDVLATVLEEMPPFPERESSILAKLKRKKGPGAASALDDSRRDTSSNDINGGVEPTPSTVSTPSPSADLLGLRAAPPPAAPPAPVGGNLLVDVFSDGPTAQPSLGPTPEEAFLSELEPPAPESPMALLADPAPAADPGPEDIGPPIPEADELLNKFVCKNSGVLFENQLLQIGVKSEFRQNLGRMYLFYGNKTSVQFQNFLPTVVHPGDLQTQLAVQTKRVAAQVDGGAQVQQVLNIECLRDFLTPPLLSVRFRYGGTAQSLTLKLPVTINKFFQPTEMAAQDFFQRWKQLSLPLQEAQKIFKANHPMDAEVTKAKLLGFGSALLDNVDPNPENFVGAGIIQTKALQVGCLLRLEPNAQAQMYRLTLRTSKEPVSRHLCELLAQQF
# Dihydropyrimidinase-related protein 1, sequence (P97427 whole entry): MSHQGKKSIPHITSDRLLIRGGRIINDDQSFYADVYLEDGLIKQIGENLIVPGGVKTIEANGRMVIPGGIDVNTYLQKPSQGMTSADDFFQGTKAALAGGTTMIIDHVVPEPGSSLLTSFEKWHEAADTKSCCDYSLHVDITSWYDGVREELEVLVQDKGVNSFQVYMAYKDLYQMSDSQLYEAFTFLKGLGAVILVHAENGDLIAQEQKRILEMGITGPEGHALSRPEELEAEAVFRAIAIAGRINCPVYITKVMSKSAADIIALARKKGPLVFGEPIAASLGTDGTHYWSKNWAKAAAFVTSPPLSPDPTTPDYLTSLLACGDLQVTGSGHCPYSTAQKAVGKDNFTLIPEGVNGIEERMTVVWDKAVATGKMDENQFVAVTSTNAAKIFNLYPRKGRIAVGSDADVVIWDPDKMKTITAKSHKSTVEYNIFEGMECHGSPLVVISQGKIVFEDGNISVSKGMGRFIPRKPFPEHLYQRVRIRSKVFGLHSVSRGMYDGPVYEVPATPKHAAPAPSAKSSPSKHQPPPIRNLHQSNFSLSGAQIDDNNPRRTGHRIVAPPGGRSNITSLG
# Tubulin alpha-4A chain, sequence (P68368 whole entry): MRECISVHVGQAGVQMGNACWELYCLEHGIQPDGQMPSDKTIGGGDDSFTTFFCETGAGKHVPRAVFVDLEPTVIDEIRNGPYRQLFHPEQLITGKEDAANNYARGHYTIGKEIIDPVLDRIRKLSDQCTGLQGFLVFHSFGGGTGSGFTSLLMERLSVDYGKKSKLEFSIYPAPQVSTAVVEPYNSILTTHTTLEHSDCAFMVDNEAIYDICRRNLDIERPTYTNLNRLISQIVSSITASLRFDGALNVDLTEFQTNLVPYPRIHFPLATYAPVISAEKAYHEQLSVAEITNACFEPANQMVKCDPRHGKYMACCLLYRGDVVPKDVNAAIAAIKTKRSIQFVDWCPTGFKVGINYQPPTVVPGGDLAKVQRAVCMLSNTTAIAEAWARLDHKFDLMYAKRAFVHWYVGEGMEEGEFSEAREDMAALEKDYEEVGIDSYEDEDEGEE
# Tubulin beta-4A chain, sequence (Q9D6F9 whole entry): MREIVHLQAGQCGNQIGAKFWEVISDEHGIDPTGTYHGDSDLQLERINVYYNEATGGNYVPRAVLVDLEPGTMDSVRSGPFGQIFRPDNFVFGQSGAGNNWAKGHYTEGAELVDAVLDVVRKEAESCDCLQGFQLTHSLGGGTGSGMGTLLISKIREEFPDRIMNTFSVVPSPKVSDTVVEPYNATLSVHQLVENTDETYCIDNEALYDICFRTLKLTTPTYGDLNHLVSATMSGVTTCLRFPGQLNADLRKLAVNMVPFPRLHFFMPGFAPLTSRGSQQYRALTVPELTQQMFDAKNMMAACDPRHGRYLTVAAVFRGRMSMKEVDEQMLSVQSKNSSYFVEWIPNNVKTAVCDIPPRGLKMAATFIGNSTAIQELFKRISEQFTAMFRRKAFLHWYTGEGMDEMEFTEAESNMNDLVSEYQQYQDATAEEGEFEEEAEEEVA
row,Substance,G2385R/WT (ratio of abundance in G2385R versus wild-type bait)
1,Tubulin beta-4B chain (from UniProt P68372 1-445) (natural protein),0.49
2,Dihydropyrimidinase-related protein 1 (from UniProt P97427 1-572) (natural protein),0.42
3,Dihydropyrimidinase-related protein 4 (from UniProt O35098 1-572) (natural protein),0.46
4,Coronin-1A (from UniProt O89053 1-461) (natural protein),0.37
5,AP-2 complex subunit alpha-1 (from UniProt P17426 1-977) (natural protein),0.44
6,Tubulin alpha-4A chain (from UniProt P68368 1-448) (natural protein),0.53
7,Synapsin-2 (from UniProt Q64332 1-586) (natural protein),0.53
8,Tubulin alpha-1A chain (from UniProt P68369 1-451) (natural protein),0.49
9,F-actin-capping protein subunit alpha-2 (from UniProt P47754 1-286) (natural protein),0.5
10,14-3-3 protein epsilon (from UniProt P62259 1-255) (natural protein),0.37
11,Ras-related protein Rab-1A (from UniProt P62821 1-205) (natural protein),0.62
12,Actin-related protein 2/3 complex subunit 1 A (from UniProt Q9R0Q6 1-370) (natural protein),0.26
13,Tubulin beta-4A chain (from UniProt Q9D6F9 1-444) (natural protein),0.39
